Some targets named below: Src (Homo sapiens, UniProt P12931); PKBb (Homo sapiens, UniProt P31751); BTK (Homo sapiens, UniProt Q06187); ABL (Homo sapiens, UniProt P00519); TrkA (Homo sapiens, UniProt P04629); RIPK2 (Homo sapiens, UniProt O43353).
Assay in all cases: Kinase panel residual activity
Type in all cases: biochemical
Holding throughout (conditions): compound at 1 micromolar

The target in another data set is T1, PKD1 (Homo sapiens, UniProt Q15139).
T1 sequence (Q15139 1-912): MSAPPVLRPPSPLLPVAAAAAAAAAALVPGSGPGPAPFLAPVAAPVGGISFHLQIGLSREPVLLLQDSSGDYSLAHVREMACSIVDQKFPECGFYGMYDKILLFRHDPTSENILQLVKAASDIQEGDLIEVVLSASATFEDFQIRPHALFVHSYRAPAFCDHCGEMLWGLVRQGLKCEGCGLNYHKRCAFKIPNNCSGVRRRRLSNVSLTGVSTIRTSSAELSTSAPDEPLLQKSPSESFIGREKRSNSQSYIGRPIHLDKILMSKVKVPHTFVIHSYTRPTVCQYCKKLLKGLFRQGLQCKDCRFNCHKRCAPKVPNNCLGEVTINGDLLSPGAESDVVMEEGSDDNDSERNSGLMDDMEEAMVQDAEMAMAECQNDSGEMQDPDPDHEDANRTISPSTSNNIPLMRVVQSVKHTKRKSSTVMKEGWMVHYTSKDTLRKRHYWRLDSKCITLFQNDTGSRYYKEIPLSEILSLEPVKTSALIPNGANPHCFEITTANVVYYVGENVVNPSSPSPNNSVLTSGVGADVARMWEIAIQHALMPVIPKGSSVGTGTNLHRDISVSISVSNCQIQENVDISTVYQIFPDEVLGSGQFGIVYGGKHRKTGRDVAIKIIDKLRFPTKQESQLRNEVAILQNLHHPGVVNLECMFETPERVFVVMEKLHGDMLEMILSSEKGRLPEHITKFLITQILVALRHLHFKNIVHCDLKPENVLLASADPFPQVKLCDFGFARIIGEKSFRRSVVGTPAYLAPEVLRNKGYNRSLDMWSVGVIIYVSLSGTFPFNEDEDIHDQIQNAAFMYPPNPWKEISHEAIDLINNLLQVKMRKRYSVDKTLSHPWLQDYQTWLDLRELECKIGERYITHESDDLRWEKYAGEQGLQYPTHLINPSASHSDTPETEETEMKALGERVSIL

The target of the next data set is T2, MKK6 (Homo sapiens, UniProt P52564).
T2 sequence (P52564 1-334): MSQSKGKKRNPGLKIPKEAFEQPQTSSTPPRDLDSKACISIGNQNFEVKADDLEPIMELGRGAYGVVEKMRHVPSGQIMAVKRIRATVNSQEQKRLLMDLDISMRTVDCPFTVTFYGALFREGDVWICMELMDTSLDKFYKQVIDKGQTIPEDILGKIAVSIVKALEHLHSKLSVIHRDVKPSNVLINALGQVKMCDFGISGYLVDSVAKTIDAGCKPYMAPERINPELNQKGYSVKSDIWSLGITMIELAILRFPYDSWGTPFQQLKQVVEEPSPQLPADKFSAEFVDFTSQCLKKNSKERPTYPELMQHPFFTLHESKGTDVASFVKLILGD

In another data set the target is T3, TSSK1 (Homo sapiens, UniProt Q9BXA7).
T3 sequence (Q9BXA7 1-367): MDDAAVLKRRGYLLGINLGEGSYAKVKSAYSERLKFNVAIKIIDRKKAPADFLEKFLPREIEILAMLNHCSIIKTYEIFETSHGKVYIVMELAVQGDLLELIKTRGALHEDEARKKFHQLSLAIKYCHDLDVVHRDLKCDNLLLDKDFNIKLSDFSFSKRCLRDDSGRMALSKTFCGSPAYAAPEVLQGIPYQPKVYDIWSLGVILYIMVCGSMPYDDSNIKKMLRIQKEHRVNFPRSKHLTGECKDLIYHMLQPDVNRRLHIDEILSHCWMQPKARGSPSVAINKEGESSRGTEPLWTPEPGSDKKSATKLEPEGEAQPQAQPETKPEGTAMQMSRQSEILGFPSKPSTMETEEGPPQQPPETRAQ

The next data set addresses T4, PKCz (Homo sapiens, UniProt Q05513).
T4 sequence (Q05513 1-592): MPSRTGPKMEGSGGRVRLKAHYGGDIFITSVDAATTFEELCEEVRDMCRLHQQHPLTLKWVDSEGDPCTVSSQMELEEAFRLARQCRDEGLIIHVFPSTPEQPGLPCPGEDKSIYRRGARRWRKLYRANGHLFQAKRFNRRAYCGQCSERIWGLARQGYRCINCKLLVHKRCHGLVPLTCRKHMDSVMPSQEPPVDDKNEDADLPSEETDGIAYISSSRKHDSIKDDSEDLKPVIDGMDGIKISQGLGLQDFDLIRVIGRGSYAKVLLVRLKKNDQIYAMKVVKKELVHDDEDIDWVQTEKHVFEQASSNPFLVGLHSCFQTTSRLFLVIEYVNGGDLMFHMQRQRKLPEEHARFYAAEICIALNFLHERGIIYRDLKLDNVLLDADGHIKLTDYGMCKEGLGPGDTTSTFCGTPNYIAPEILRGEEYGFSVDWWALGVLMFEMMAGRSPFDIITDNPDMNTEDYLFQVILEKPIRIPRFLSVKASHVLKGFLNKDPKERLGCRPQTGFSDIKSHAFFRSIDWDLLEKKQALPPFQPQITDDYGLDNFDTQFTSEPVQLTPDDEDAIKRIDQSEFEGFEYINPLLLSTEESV

Each structure is given as a SMILES string. Where a SMILES comes first, the peptide text is derived from it. [ ]: non-standard residue; d: D form. The star is where a group is joined. X1 = O=C(CCCCCCCn1cnc2c(Br)c(Br)c(Br)c(Br)c21)*

Chain of Src (P12931 whole entry, species assumed): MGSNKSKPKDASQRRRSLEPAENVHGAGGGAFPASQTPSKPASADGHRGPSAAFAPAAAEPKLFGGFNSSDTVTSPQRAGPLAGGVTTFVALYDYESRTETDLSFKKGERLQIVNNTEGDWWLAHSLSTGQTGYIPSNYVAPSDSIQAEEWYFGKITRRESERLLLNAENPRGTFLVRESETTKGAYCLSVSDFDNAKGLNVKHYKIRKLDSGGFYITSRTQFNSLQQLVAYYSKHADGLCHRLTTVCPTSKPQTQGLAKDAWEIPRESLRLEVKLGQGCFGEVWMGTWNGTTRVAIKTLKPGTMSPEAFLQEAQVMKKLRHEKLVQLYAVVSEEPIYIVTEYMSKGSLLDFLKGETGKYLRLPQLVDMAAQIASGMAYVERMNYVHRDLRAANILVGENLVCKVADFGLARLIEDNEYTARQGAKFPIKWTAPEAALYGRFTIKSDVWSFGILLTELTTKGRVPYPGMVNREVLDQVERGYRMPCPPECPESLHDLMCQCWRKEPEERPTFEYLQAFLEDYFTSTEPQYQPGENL
Chain of RIPK2 (O43353 whole entry, species assumed): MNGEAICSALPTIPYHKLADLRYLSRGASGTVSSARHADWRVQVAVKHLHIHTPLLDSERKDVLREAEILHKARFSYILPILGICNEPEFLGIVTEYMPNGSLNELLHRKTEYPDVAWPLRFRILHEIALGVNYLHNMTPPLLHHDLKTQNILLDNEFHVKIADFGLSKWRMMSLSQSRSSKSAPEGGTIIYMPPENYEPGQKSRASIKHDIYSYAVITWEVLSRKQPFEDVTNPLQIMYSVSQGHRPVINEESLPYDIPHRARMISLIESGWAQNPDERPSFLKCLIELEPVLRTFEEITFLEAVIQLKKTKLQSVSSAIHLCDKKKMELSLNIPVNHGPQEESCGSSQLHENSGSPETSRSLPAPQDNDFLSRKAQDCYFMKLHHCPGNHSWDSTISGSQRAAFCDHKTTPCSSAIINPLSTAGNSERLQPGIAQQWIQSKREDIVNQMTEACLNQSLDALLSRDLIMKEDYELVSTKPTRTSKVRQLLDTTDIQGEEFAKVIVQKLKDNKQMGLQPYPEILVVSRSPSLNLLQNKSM
Chain of BTK (Q06187 whole entry, species assumed): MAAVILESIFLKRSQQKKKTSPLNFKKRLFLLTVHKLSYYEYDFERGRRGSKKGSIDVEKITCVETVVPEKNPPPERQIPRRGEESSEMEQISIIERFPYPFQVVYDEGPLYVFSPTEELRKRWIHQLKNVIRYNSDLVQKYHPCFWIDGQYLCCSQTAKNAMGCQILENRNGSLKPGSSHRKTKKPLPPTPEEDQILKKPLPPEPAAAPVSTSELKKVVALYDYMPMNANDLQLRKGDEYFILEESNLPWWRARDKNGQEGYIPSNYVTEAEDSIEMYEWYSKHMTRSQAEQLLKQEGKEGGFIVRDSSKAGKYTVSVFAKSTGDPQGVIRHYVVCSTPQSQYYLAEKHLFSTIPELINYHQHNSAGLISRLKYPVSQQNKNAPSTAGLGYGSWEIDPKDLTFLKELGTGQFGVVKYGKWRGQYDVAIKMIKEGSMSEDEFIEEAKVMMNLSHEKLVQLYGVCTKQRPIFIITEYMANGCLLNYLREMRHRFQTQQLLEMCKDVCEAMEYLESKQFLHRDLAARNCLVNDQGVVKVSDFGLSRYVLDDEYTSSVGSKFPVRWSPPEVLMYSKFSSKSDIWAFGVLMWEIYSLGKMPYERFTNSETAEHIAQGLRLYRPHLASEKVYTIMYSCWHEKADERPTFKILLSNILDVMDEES
Chain of PKBb (P31751 whole entry): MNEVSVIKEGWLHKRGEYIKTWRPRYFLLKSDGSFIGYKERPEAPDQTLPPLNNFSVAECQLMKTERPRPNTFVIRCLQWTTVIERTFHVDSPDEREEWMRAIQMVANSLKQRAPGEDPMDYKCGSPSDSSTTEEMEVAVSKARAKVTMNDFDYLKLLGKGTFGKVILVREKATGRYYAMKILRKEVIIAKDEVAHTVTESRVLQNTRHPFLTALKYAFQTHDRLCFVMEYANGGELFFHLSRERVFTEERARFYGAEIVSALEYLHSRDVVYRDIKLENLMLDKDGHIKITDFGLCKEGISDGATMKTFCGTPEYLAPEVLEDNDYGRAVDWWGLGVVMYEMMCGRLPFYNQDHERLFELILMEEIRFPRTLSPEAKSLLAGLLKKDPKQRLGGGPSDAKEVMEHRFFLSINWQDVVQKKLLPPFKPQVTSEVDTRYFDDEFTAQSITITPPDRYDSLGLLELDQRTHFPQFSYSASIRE
Chain of TrkA (P04629 33-796, species assumed): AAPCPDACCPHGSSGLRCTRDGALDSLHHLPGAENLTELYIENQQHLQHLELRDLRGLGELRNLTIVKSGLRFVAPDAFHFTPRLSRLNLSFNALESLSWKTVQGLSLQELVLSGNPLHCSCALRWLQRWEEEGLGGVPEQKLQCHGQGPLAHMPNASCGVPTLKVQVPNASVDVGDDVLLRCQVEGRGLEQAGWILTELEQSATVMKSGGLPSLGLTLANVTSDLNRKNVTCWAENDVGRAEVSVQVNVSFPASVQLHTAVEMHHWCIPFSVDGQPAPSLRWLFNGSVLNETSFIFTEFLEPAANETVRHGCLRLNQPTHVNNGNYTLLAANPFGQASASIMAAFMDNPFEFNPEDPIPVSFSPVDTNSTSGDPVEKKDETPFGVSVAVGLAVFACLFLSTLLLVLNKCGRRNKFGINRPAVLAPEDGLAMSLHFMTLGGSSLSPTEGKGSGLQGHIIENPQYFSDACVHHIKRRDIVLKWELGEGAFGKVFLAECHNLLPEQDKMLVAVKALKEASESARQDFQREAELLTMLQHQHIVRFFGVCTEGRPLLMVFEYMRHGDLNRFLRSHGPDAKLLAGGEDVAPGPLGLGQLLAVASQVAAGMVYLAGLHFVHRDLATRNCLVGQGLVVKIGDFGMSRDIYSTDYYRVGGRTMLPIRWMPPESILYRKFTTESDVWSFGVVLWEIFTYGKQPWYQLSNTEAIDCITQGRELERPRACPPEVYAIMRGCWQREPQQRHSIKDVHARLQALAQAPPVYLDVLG
Chain of ABL (P00519 whole entry, species assumed): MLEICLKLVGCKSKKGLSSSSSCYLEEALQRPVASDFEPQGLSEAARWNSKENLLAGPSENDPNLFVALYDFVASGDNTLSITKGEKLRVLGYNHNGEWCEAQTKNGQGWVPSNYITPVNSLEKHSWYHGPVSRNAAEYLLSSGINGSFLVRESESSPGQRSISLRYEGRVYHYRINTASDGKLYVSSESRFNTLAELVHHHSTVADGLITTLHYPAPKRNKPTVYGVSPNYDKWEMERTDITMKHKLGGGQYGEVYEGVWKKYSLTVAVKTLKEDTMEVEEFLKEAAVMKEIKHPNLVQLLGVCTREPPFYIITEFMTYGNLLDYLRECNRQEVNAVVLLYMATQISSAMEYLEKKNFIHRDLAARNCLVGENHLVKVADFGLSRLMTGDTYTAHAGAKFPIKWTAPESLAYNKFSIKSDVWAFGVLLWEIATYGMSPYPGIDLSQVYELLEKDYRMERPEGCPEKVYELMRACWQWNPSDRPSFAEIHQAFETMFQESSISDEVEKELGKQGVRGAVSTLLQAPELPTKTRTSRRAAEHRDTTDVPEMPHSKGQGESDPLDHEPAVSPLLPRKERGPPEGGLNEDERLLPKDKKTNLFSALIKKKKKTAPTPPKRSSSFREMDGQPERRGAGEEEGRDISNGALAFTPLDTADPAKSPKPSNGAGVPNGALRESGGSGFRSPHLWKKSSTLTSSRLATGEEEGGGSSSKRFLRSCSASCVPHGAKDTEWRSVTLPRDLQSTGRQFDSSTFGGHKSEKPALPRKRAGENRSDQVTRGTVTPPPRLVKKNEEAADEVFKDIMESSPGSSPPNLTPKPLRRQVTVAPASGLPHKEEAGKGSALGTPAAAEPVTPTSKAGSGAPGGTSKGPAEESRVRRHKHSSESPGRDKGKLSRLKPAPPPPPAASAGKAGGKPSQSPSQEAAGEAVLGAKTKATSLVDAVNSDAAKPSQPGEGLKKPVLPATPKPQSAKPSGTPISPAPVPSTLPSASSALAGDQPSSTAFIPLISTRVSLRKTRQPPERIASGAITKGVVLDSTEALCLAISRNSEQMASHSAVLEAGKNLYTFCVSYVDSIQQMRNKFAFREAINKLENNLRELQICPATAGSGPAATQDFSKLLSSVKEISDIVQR

A word on the remaining activity: it is the signal under treatment as a percentage of the control signal. Consider `NCCCC[C@H](NC(=O)[C@H](CC(=O)O)NC(=O)[C@H](CC(=O)O)NC(=O)[C@H](CC(=O)O)NC(=O)[C@H](CC(=O)O)NC(=O)[C@H](CC(=O)O)NC(=O)[C@@H](CC(=O)O)NC(=O)CCCCCCCn1cnc2c(Br)c(Br)c(Br)c(Br)c21)C(=O)O` [TBBI-OcA-(D-Asp)-(L-Asp)5-(L-Lys)-OH] (X1-[dD]DDDDDK-OH), for which the remaining activity at 1 µM with Src was found to be 57%; with PKBb it was 72%; with PKD1, 72%; in the data set with BTK, 80%; with MKK6, 82%; with TSSK1, 86%. Also, the remaining activity at 1 µM turned out to be 101% with ABL, 105% with PKCz, 111% in the data set with TrkA and 120% with RIPK2.

The values above are taken from patent US9176064B2, “Bisubstrate fluorescent probes for protein kinase CK2” (University of Tartu, priority 2012, dated 2015).
